Experimental data: the nanobody polyreactivity screen of Harvey et al. (2022)

Assay: yeast display, Sf9 membrane polyspecificity reagent, FACS + sequencing; frameworks hold sequencing errors
How it was run: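 Galactose induction of a Saccharomyces cerevisiae BJ5465 synthetic nanobody display library ran 36–48 hours. The cells were then stained for 1 hour at 4 °C with 10% biotinylated, detergent-solubilized Sf9 membrane reagent, pulled down on streptavidin microbeads and FACS-sorted into low and high (top ~1%) gates on expression and reagent-binding fluorescence. Labels for polyreactivity follow the gate of origin.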

**Q.** For “QVQLVESGGGLVQAGGSLRLSCAASGSIFDTNAMGWYRQAPGKERELVAAIRWSGGRTYYADSVKGRFTISRDNAKITVYLQMNSLKPEDTAVYYCNKVPRTPIPYKYGYWGQGTQVTVSS”, which “polyreactivity (PSR sort gate)” value is on record?
**A.** high polyreactivity

**Q.** Which “polyreactivity (PSR sort gate)” value does the source give for “QVQLVESGGGLVQAGGSLRLSCAASGSIFDTYAMGWYRQAPGKERELVAAITWGGGRTYYADSVKGRFTISRDNAKNTVYLQMNSLKPEDTAVYYCAARWRLRGGNQRYGYWGQGTQVTVSS” here?
**A.** high polyreactivity

**Q.** With “QVQLVESGGGLVQAGGSLRLSCAASGSIFDTYAMGWYRQAPGQERELVAAITSGGSTNYADSVKGRFTISRDNAKNTVYLQMNSLKPEETAVYYCAADAEDRPSWPGNSEYEYWGQGTQVTVSS” as the sequence, how does the “polyreactivity (PSR sort gate)” value read?
**A.** low polyreactivity

**Q.** Which “polyreactivity (PSR sort gate)” value does the source give for “QVQLVESGGGLVQAGGSLRLSCAASGSIFDTYSMGWYIQAPGKERELVAAISSGGRTYYADSVKGRFTISRDNAKNTVYLQMNSLKPEDTAVYYCNARYHARYGGDYWGQGTQVTVSS” here?
**A.** high polyreactivity

**Q.** For “QVQLVESGGGLVQAGGSLRLSCAASGSIFDVNAMGWYRQAPGIERDLVAAISQRGTRTYYADSVKGRFTISRDNAKNTVYLQMNSLKPEDTAVYYCAARVPSVGNQSGYDYWGQGTQVTVSS”, which “polyreactivity (PSR sort gate)” value is on record?
**A.** high polyreactivity

**Q.** For “QVQLVESGGGLVQAGGSLRLSCAASGSIFDVNAMGWYRQAPGKERELVAAITSSGGSTYYADSVKGRFTISRDNAKNTVYLQMNSLKPVDTAVYYCAAYSLYTMYWGQGTQVTVSS”, which “polyreactivity (PSR sort gate)” value is on record?
**A.** low polyreactivity

**Q.** Which “polyreactivity (PSR sort gate)” value does the source give for “QVQLVESGGGLVQAGGSLRLSCAASGSIFDVNAMGWYRQAPGKESELVAAISDSGGSTYYADSVKGRFTISRDNAKTTVYLQMTSLKQEDTAVYYCNADWSWYNYYDFDYWGQGTQVTVSS” here?
**A.** low polyreactivity

**Q.** Which “polyreactivity (PSR sort gate)” value does the source give for “QVQLVESGGGLVQAGGSLRLSCAASGSIFDVNAMGWYRQAPWKERELVAAISDSGGSTYYADSVKGRFTISRDNANNTVYLQMNSLKPEDTAVYYCNADWSWYNYYDFDYWGQGTQVTVSS” here?
**A.** low polyreactivity

**Q.** With “QVQLVESGGGLVQAGGSLRLSCAASGSIFDVYAMGWYRQAPGKERELVATISNSAGSTYYADSVKGRFTISRDNAKNTVYLQMNSLKPEDTAVYYCAAVVVYFDEYDYWGQGTQVTVSS” as the sequence, how does the “polyreactivity (PSR sort gate)” value read?
**A.** low polyreactivity

**Q.** For “QVQLVESGGGLVQAGGSLRLSCAASGSIFDVYGMGWYRQAPGKEREFVADITSRGTRTYYADSVKGRFTISRDNAKNTVYLQMNSLKPEDTAVYYCNTLVGVDFWLVDYWGQGTQVTLSS”, which “polyreactivity (PSR sort gate)” value is on record?
**A.** low polyreactivity

**Q.** For “QVQLVESGGGLVQAGGSLRLSCAASGSIFDVYGMGWYRQAPGKERELVARITSAGNTDYADSVKGRFTISRDNAKNTVYLQRNSLKPEDTAVYYCARDYVWFYGDTDFYYYLFDYWGQGTQVTVSS”, which “polyreactivity (PSR sort gate)” value is on record?
**A.** low polyreactivity

**Q.** With “QVQLVESGGGLVQAGGSLRLSCAASGSIFDVYTMGWYRQAPGKERELVAAINTGGGSTYYADSVKGRFTISRDNAKNTVYLQMNSLKPEDTAVYFCAASVYHYGPLYYWGQGTQVTVSS” as the sequence, how does the “polyreactivity (PSR sort gate)” value read?
**A.** low polyreactivity

**Q.** Which “polyreactivity (PSR sort gate)” value does the source give for “QVQLVESGGGLVQAGGSLRLSCAASGSIFDWYAMGWYRQAPGKERELGAAITNSGGRTYYADSVKGRFTISRDTAKNTVYLQMNSLKPEDTAVYYCNASVFRLRKMYYWGQGTPVTVSS” here?
**A.** high polyreactivity

**Q.** Which “polyreactivity (PSR sort gate)” value does the source give for “QVQLVESGGGLVQAGGSLRLSCAASGSIFDYKAMGWYRQAPGKERELVAAIDSSDTGTYYADSVKGRFTISRDNAKNTVYLQMNSLKPEDTAVYYCAAEYGWWEGSTTYLRYDYWGQGTQVTVSS” here?
**A.** low polyreactivity

**Q.** For “QVQLVESGGGLVQAGGSLRLSCAASGSIFDYNAMGWYRQAPGKVRELVAAITGSGGSTYYADSVKGRFTISRDNAKNTVYLQMNSLTAEDTAVYYCAAPVDYRRYEYEYWGQGTQVTVSS”, which “polyreactivity (PSR sort gate)” value is on record?
**A.** low polyreactivity

**Q.** For “QVQLVESGGGLVQAGGSLRLSCAASGSIFDYNGMGWYRQAPGKERELVATITLSTARTYYADSVKGRFTISRDNAKNTVYLQMNSLKPEDTAVYYCAATRLTPYIYGGKYNYWGQGTQVTVSS”, which “polyreactivity (PSR sort gate)” value is on record?
**A.** high polyreactivity

**Q.** For “QVQLVESGGGLVQAGGSLRLSCAASGSIFDYNTMGWYRQAPGKEREFVAAISSSGGGTSYADSVKGRFTISRDNAKNTVYLQMNSLKPEDTAVYYCAALIKLTPYQRQYWKYRAYYYWGQGSQVTVSS”, which “polyreactivity (PSR sort gate)” value is on record?
**A.** high polyreactivity

**Q.** Which “polyreactivity (PSR sort gate)” value does the source give for “QVQLVESGGGLVQAGGSLRLSCAASGSIFDYYAMGWDRQAPGKERELVAAISWSGGSTYYADSVKGRFTISRDNAKNTVYLHMNSLNPEDTAVYYCAADEYDYYHSRWYEYWGQGTQVTVSS” here?
**A.** high polyreactivity

**Q.** For “QVQLVESGGGLVQAGGSLRLSCAASGSIFDYYAMGWYRQAPGKERELVAAIDNPDSTNYADSVKGRFTISRDNAKNTVYFQMNSLKPEDTAVYYCNADYWRYISSYDYWGQGTQVTVSS”, which “polyreactivity (PSR sort gate)” value is on record?
**A.** low polyreactivity

**Q.** For “QVQLVESGGGLVQAGGSLRLSCAASGSIFDYYAMGWYRQAPGKERELVATITSGVSTYYADSVKGRFTISRDNAKNTVYLQMNSLKPEDTAVYYCARDYAKSQDLYKYDYWGQGTQVTVSS”, which “polyreactivity (PSR sort gate)” value is on record?
**A.** low polyreactivity

**Q.** Which “polyreactivity (PSR sort gate)” value does the source give for “QVQLVESGGGLVQAGGSLRLSCAASGSIFDYYTMGWYRQAPGKERELVASITQSGGSTYYADSVKGRFTISRDNAKNTVYLQMNSLKPEDTAVYYCAADFSIVKMDYWGQGTQVTVSS” here?
**A.** low polyreactivity

**Q.** For “QVQLVESGGGLVQAGGSLRLSCAASGSIFEANVMGWYRQAPGKERELVASISSDGTSTYYADSVKGRFTISRDNAKNTVYLQMNSLKPEDTAVYYCNADAGAGWYPDSKYDYDYWGQGTQVTVSS”, which “polyreactivity (PSR sort gate)” value is on record?
**A.** low polyreactivity

**Q.** For “QVQLVESGGGLVQAGGSLRLSCAASGSIFEFNTMGWYRQAPGKERELVAAISSSGGRTYYADSVKGRFTISRDNAKNTVYLQMNSLKPEDTAVYYCNAVSYYGARYDYWGQGTQVTVSS”, which “polyreactivity (PSR sort gate)” value is on record?
**A.** high polyreactivity

**Q.** For “QVQLVESGGGLVQAGGSLRLSCAASGSIFEGNGMGWYRQAPGKERELVAAITFRSGSTYYADSVKGRFTISRDNAKNTVYLLMNSLKPADTAVYYCAAHESYQVSAYDYWGQGSQVTVSS”, which “polyreactivity (PSR sort gate)” value is on record?
**A.** low polyreactivity

**Q.** With “QVQLVESGGGLVQAGGSLRLSCAASGSIFEGNGMGWYRQAPGKERELVAAITFRSGSTYYADSVKGRFTISRDNAKNTVYLQMNSLKPEDTAVYYCAADEYYEVSAYDYWGQGTQVTVSS” as the sequence, how does the “polyreactivity (PSR sort gate)” value read?
**A.** low polyreactivity

**Q.** With “QVQLVESGGGLVQAGGSLRLSCAASGSIFEGYAMGWYRQAPGKERELVAAISRSGGSTYYADSVKGRFPISRDNAKNTVYLQMNSLKPEDTAVYYCAARKAIDYQGRHDHWGQGTQVTVSS” as the sequence, how does the “polyreactivity (PSR sort gate)” value read?
**A.** low polyreactivity

**Q.** With “QVQLVESGGGLVQAGGSLRLSCAASGSIFEGYAMGWYRQAPGKERELVARITSDDDSTYYADSVKGRFTISRDNAKNTVYLQMNSLKPEDTAVYYCNADYYCTSLAMDSWGQGTQVTVSS” as the sequence, how does the “polyreactivity (PSR sort gate)” value read?
**A.** low polyreactivity

**Q.** With “QVQLVESGGGLVQAGGSLRLSCAASGSIFEGYVMGWYRPAPGKVRELVAAISWSGGSTYYADSVKGRFTISRDNAKNTVYLQMNSLKPEDTAVYYCAAYGYDRYGRTRYNSWGQGTQVTVSS” as the sequence, how does the “polyreactivity (PSR sort gate)” value read?
**A.** high polyreactivity

**Q.** For “QVQLVESGGGLVQAGGSLRLSCAASGSIFEIYDMGWYRQAPGKERELVASIRTSGGSTYYAESVKGRFTISRDNAKNTVYLLMNSLKPEDTAVYYCATGWSWYHPDYDYWGQGTQVTVSS”, which “polyreactivity (PSR sort gate)” value is on record?
**A.** low polyreactivity

**Q.** With “QVQLVESGGGLVQAGGSLRLSCAASGSIFELYAMGWYRQAPGKDRELVASITWSSSNTHYADSVKGRFTISRDNAKNTVYLQMNSMKPEDTAVYYCAKDVLYGQFDGDSWGQGNQVTVSS” as the sequence, how does the “polyreactivity (PSR sort gate)” value read?
**A.** low polyreactivity

**Q.** With “QVQLVESGGGLVQAGGSLRLSCAASGSIFELYAMGWYRQAPGKERELVAAISSTGGRTYYADSVKGRFTISRDNAKNTVYLQMNSLKPEDTAVYYCNKVWPRVHPWNYDYWGQGTQVTVSS” as the sequence, how does the “polyreactivity (PSR sort gate)” value read?
**A.** high polyreactivity

**Q.** Which “polyreactivity (PSR sort gate)” value does the source give for “QVQLVESGGGLVQAGGSLRLSCAASGSIFENYAMGCYRQAPGKERELVAAISSSGDSTYYADSVKGRFTISRDNAKNTVYLQMNSLKPEDTAVYYCAKGYRRVYGPFYYWGQVTQVTVSS” here?
**A.** low polyreactivity

**Q.** With “QVQLVESGGGLVQAGGSLRLSCAASGSIFEQNAMGWYRQAPGKERELVAAITWSGDSTYYADSVKGRFTISRDNAKNTVYLQMNSLKPEDTAVYYCAKEFGGTKRYGWYNYWGQGTQVTVSS” as the sequence, how does the “polyreactivity (PSR sort gate)” value read?
**A.** low polyreactivity

**Q.** With “QVQLVESGGGLVQAGGSLRLSCAASGSIFERNAMGWYRQAPGKERELVAVITGSGGSTYYADSVKGRFTISRDNAKNTVYLQMNSLKPEDTAVYYCAAPVHTASGRWVPGYYYWGQGTQVTVSS” as the sequence, how does the “polyreactivity (PSR sort gate)” value read?
**A.** high polyreactivity

**Q.** With “QVQLVESGGGLVQAGGSLRLSCAASGSIFERYAMGWYRQAPGKERELVAAITWTGGSTYYADSVKGRFTISRDNAQNTVYLQMNSLKPEDTAVYYCAADYLYPLWGWYDYWGQGTQVTVSS” as the sequence, how does the “polyreactivity (PSR sort gate)” value read?
**A.** low polyreactivity

**Q.** For “QVQLVESGGGLVQAGGSLRLSCAASGSIFESNAMGWYRQAPGKERELVADITYRGTRTYYADSVKGRFTISRDNAKNTVYLQMNSLKPEDTAVYYCAVWQDHYDWGQGTQVTVSS”, which “polyreactivity (PSR sort gate)” value is on record?
**A.** low polyreactivity

**Q.** Which “polyreactivity (PSR sort gate)” value does the source give for “QVQLVESGGGLVQAGGSLRLSCAASGSIFESYAMGWYRQAPGKEREFVAAISDSGADTYYADSVKGRFTISRDNAKNTVYLQMNSLKPEDTAVYYCNADKEFAVLGQGMDYWGQGTQVTVSS” here?
**A.** low polyreactivity

**Q.** With “QVQLVESGGGLVQAGGSLRLSCAASGSIFESYAMGWYRQAPGKERELVAAIDSGDSTYYADSVKGRFTISRDNAKNTVYLQMNSLKPEDTAVYYCAAGYLFLKRIWQSRMDYWGQGTQVTVSS” as the sequence, how does the “polyreactivity (PSR sort gate)” value read?
**A.** low polyreactivity

**Q.** Which “polyreactivity (PSR sort gate)” value does the source give for “QVQLVESGGGLVQAGGSLRLSCAASGSIFESYAMGWYRQAPGKERELVAAITKRGGSTYYADSVKGRFTISRDNAKYTVYLQMNSLKPEDTAVYYCNARWPGIGPIYDYWGQGSQVTVSS” here?
**A.** low polyreactivity

**Q.** With “QVQLVESGGGLVQAGGSLRLSCAASGSIFESYAMGWYRQAPGKERELVAAITSSGDSTYYADSVKGRFTISRDNAKNTVYLQMNSLKPEDTAVDYCAKRVPTYISTADWGSRYDYWGQGTQVTVSS” as the sequence, how does the “polyreactivity (PSR sort gate)” value read?
**A.** low polyreactivity
